What was measured:
α-synuclein (α-syn) [1] = biological target: α-synuclein (α-syn) (UniProt P37840); test: ThT fluorescence of ONE-induced self-aggregation; settings: reference: α-syn not treated with PLK3; sites S129
α-synuclein (α-syn) [2] = biological target: α-synuclein (α-syn) (UniProt P37840); test: ThT fluorescence of agitation-induced self-aggregation; settings: reference: α-syn not treated with PLK3; sites S129

fold change (α-synuclein (α-syn) [1]): stronger; reference 1
fold change (α-synuclein (α-syn) [2]): stronger; reference 1
Substance: α-synuclein (α-syn) (from UniProt P37840) PLK3-phosphorylated α-syn (p-α-syn)

Source: publication PMC11082957
